Each block holds one binder with its values, some of them ahead of it.
Columns and labels:
[1] = molecular target: T1, recombinant human erythroferrone (ERFE) (human, UniProt Q4G0M1 29-354); test: sandwich ELISA, biotinylated detection antibody; coating antibodies 7H4, 17A5, 4C1
T1 construct: Secreted from transfected HEK293F cells and purified from the supernatant; also called human ERFE; hERFE
T1 sequence: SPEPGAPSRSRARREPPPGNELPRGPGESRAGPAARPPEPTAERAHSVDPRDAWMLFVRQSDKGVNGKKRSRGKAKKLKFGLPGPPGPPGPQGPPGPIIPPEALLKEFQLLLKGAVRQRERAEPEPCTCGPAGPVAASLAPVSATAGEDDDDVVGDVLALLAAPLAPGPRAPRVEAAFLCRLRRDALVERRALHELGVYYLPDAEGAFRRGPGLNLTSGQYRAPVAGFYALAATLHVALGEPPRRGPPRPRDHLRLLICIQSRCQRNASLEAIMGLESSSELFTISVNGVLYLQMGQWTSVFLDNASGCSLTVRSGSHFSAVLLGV

[2] = molecular target: T1, recombinant human erythroferrone (ERFE); test: sandwich ELISA, biotinylated detection antibody (also used as coating antibody); coating antibodies 7H4, 17A5, 4C1

- binding result [1]: binds
B1: monoclonal antibody 9B12 (ATCC Accession Number PTA-123882) (antibody, mouse IgG1, kappa, V domains shown)
VH: QVQLQQSGPELVKPGASVRISCKASGYTFTSYYIHWVKQRPGQGLEWIAWIYPGNVNTEYNEKFKGKATLTADESSSTAYMQLSSLTSEDSAVFFCAREGITTNALDYWGQGTSVTVSS
VL: DIQMTQTTSSLSASLGDRVTISCRASQDISNYLNWYQQKPDGTVKLLIYYTSRLYSGVPSRFSGNGSGSDYSLTISNLEQEDIATYFCQQGHTLWTFGGGTKLEIKR
notes: Mouse IgG1 from hybridoma; Biotinylated when used as detection antibody

- binding result [2]: binds
B2: monoclonal antibody 17A5 (ATCC Accession Number PTA-123883) (antibody, mouse IgG1, kappa, V domains shown)
VH: QVQLQQPGSVLVRPGASVKLSCKASGYTFTSYWMHWAKQRPGQGLEWIGEIHPKSGDTNHNEKFKGKATLTVDTSSNTAYVDLSSLTSEDSAVYYCAREGITTVGFDLWGAGTTVTVSS
VL: QIVLTQSPAIMSASPGQKVTLTCSASSSVSYMNWVQQKSGTSPKRWIYDTSKLASGVPARFSGSGSGTSYSLTISSVEAEDAATYYCQQWSSHPYTFGGGTKLEIKR
notes: as for B1

Reference: patent US20200231668A1 (INTRINSIC LIFESCIENCES, published 2020)
